Molecular target: T1, ZafA (Aspergillus fumigatus (FGSC A1163 akuB(KU80)-delta pyrG1 is the study strain; cDNA source 'fungal cDNA')) (UniProt A3QX02)
T1 sequence: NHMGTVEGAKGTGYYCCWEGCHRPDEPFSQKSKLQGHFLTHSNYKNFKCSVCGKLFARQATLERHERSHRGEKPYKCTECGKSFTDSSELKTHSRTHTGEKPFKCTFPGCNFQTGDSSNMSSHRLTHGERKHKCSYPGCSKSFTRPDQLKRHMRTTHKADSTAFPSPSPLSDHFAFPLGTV
Assay: competition
Settings: 10 mM Tris-HCl pH 8.0, 50 mM NaCl, 1 mM MgCl2, 500 uM EDTA, 500 uM DTT, 4% glycerol; 500 ng ZafA, 5 ng probe; 30 min at 25 C; Zn/Cu added 10 min after start of …

**Q.** With “AGCAGACCAGAGCAATAGAAGAAAGGGTCAAAAAAAGAGGAAAGACAGCGGTTATCTACATAGAGATAGCAAGCAGTGGCTGGGACGGAGAAAGTGAAGTCGTACAACAAGACAGGCCCTGGGCCCTT (double strand)” as the sequence, how does the binding read?
**A.** no binding

**Q.** With “AAGGGCCCAGGGCCTGTCTTGTTGTACGACTTCACTTTCTCCCAGGGTGCCACTGCTTGCTATCTCTATGTAGATAACCGCTGTCTTTCCTCTTTTTTTGACCCTTTCTTCTATTGCTCTGGTCTGCT (double strand) [CtrC promoter fragment, unlabeled]” as the sequence, how does the binding read?
**A.** binds

Molecular target: T1, ZafA (Aspergillus fumigatus (FGSC A1163 akuB(KU80)-delta pyrG1 is the study strain; cDNA source 'fungal cDNA'))
Assay: EMSA
Settings: 10 mM Tris-HCl pH 8.0, 50 mM NaCl, 1 mM MgCl2, 500 uM EDTA, 500 uM DTT, 4% glycerol; 500 ng ZafA, 5 ng probe; 30 min at 25 C; Zn/Cu added 10 min after start of …

**Q.** How did the binding turn out when “TGCCGCCATTGTTCAGCAGTGCGGTGCTGTCAAGGTCAAGGTCAAGGACGGCCTTCTCCAAGGATGTCACATACAAAGGGAATAGACTGAATAAATCATTTCCTCGGCAACGATCCGA (double strand) [CtrA1 promoter EMSA probe, 118 bp]” was run?
**A.** no binding

**Q.** For “TACCAGGGCCCCTTTCCCTCAAGTTGCTCGCACAGATCTGGATGTTACTTTCATCGAATATATACACGTGGGAAGCTCCCAAGGTCCTCTTGGAT (double strand) [ZafA promoter EMSA probe, 95 bp]”, which binding is on record?
**A.** binds

**Q.** How did the binding turn out when “AAGGGCCCAGGGCCTGTCTTGTTGTACGACTTCACTTTCTCCCAGGGTGCCACTGCTTGCTATCTCTATGTAGATAACCGCTGTCTTTCCTCTTTTTTTGACCCTTTCTTCTATTGCTCTGGTCTGCT (double strand) [CtrC promoter EMSA probe, 128 bp]” was run?
**A.** binds

**Q.** With “CTCAAAGCTCGCTCATCGGATTTTTGATTATCAGTTTTGCGAGACCAAGCATGATAGTGACAGAGCATTCAAGGTGAGAATGTGAAGAATGCGTGGCGGCGTAGCATTCTTACT (double strand) [CtrA2 promoter EMSA probe, 114 bp]” as the sequence, how does the binding read?
**A.** no binding
